# Laboratory results from article PMC10791742 (2024).
# B1: G08(LALA + YTE) human IgG1 (antibody, V domains shown)
# VH: EVQLVESGGGVVQPGRSLRLSCAASGFTFSSYGMHWVRQAPGKGLEWVAVISYDGSNKYYADSVKGRFTISRDNSKNTLYLQMNSLRAEDTAVYYCARTNYDSGDAFDIWGQGTLVTVSS
# VL: NFMLTQPHSVSESPGKTVTISCTRSSGSIASNYVQWYQQRPGSSPTTVIYEDNQRPSGVPDRFSGSIDSSSNSASLTISGLKTEDEADYYCQSYDSSTVVFGGGTKLTVL
# Assays:
# [1] = molecular target: T1, myotoxin II from Bothrops asper (Bothrops asper, UniProt P24605 17-137, biotin (EZ-Link NHS-PEG4-Biotin, molar ratio 1:1.5 toxin:biotin)); experiment: BLI
# [2] = molecular target: T1, myotoxin II from Bothrops asper; experiment: BLI; remark: listed apart in the source
# T1 sequence (P24605 17-137): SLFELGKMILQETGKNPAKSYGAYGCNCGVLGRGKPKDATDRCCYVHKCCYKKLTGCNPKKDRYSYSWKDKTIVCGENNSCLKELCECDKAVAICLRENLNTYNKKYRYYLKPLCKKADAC
binder,measurement,setting,value
B1,Kd,[1],9.41 nM
same,koff,[2],0.00283 s⁻¹
